Assay results from US20180280488A1, “Methods and Compositions for Binding Complement C3 for Targeting of Immune Cells” (University of Alaska Anchorage, priority 2017, published 2018).

Columns and labels:
[1] = test system: OVA-specific T cell hybridoma D011; assay: T cell activation: BMDC co-culture with OVA-specific reporter T cell hybridoma D011 (GFP); assay type: cell-based, mice; details: BMDC 24 hours with OVA treatments, D011 T cells 24 hours; mean±standard error (n=3)
Method: Bone marrow was extracted from adult BALB/c mice. Mice were euthanized and femur and humerus bones removed and cleaned of tissue. Bones were kept in RPMI in a sterile petri dish, and bone marrow was flushed from bones using RPMI and a 1 mL insulin syringe. Extracted bone marrow was filtered through a 100 μm nylon mesh filter and rinsed twice in RPMI. Bone marrow cells were then counted and plated at a density of 2×10^6 cells in culture medium (RPMI, 10% heat inactivated FBS, 1% penicillin/streptomycin). Granulocyte-macrophage colony stimulating factor (GM-CSF) and Interleukin-4 (IL-4) were added to the culture medium at 40 ng/mL and 20 ng/mL, respectively. Cells were incubated at 37° C. and medium with GM-CSF and IL-4 was replenished after 3 days. On day 6, non-adherent and loosely-adherent cells were harvested by pipetting and re-suspended in culture media.
10 μL of OPSS-liposomes containing OVA, control-liposomes containing OVA and free OVA matching the amount encapsulated in OPSS-liposomes (see liposome preparation) were incubated in 10 μL C3-positive and -negative serum for 1 hour at room temperature prior to addition to 80 μL of bone marrow-derived dendritic cells in RPMI (1% penicillin/streptomycin) containing 1.6×10^5 cells per well in a U-bottom plate. […] The co-cultures were then analyzed for T cell activation (GFP expression) by fluorescence microscopy and flow cytometry.

[2] = Liver toxicity assays (plasma AST, ALT); assay type: in vivo; details: A20-OVA mice, 4 days after last injection
Method: Mice were euthanized following therapy, 4 days after the last injection and blood was collected via cardiac puncture and placed in heparinized tubes. Plasma was separated from blood via centrifugation at 500×g for 15 minutes and frozen at −80° C. for subsequent analysis. Red blood cell lysis buffer (eBioscience) was added to the remaining blood for 10 minutes at room temperature. Samples were then prepared for flow cytometry analysis or frozen in culture media supplemented with 10% dimethyl sulfoxide for later use.
Mouse plasma levels of aspartate transaminase (AST) and alanine transaminase (ALT) were determined using kits purchased from BioAssay Systems (Hayward, Calif., USA). Plasma was collected from mice as previously described. Plasma samples were diluted 1:1 in assay buffer prior to addition to a Falcon flat-bottom microtest 96-well assay plate, black/clear bottom (Becton Dickinson Labware, Franklin Lakes, N.J., USA). Absorbance was measured at 340 nm at 5 and 10 minutes using a BioTek Synergy HT plate reader, and enzyme activity was calculated according to the protocol.

Molecule	T cell activation (GFP expression) [1]	ALT in mouse plasma ([2]; normal range 15-84 U/L)	AST in mouse plasma ([2]; normal range 54-298 U/L)
ovalbumin [free OVA, Non-encapsulated ovalbumin, model tumor antigen, matched to the encapsulated amount]	14.4±0.8%		
ovalbumin (protein, UniProt P01012 2-386, looked up, Non-encapsulated ovalbumin, model tumor antigen, matched to the encapsulated amount) Ovalbumin: GSIGAASMEFCFDVFKELKVHHANENIFYCPIAIMSALAMVYLGAKDSTRTQINKVVRFDKLPGFGDSIEAQCGTSVNVHSSLRDILNQITKPNDVYSFSLASRLYAEERYPILPEYLQCVKELYRGGLEPINFQTAADQARELINSWVESQTNGIIRNVLQPSSVDSQTAMVLVNAIVFKGLWEKAFKDEDTQAMPFRVTEQESKPVQMMYQIGLFRVASMASEKMKILELPFASGTMSMLVLLPDEVSGLEQLESIINFEKLTEWTSSNVMEERKIKVYLPRMKMEEKYNLTSVLMAMGITDVFSSSANLSGISSAESLKISQAVHAAHAEINEAGREVVGSAEAGVDAASVSEEFRADHPFLFCIKHIATNAVLFFGRCVSP		51.2±34.7 U/L	110.4±25.6 U/L
